# Test results reported in PMC10149257, “Substrate recognition and proton coupling by a bacterial member of solute carrier family 17” (The Journal of Biological Chemistry, 2023).
# T1: Sialin (Rattus norvegicus, UniProt Q5Q0U0)
# T1 construct: gene Slc17a5
# T1 sequence (Q5Q0U0 1-495): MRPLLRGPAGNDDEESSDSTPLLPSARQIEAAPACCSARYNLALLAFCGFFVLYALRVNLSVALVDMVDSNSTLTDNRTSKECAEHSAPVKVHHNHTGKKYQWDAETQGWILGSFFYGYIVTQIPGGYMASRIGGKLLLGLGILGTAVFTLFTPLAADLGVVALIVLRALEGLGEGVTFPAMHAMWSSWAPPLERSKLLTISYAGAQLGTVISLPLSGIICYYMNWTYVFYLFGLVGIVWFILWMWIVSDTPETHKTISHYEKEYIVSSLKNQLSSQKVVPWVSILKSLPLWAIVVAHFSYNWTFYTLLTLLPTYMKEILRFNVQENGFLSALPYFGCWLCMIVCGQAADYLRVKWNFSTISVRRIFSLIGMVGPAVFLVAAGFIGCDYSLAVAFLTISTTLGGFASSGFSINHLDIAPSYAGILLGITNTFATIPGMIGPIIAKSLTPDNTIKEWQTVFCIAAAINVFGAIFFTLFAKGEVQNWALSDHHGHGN
# T2: Sialin (Rattus norvegicus, UniProt Q5Q0U0, Y54F, form not given)
# T2 construct: gene Slc17a5
# T2 sequence (Q5Q0U0 1-495 Y54F): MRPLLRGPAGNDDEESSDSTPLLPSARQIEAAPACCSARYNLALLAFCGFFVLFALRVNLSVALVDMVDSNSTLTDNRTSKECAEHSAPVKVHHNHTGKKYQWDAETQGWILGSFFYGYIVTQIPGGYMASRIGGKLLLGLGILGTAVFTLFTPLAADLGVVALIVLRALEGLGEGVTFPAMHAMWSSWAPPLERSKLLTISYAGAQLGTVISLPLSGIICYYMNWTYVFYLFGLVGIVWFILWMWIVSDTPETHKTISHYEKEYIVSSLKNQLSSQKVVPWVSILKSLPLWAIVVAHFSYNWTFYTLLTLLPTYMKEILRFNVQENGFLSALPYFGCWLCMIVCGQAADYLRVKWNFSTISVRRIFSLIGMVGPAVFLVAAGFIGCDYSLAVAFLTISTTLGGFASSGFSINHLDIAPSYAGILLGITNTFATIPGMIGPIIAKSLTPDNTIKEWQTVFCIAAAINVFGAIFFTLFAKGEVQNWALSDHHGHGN
# What was measured:
# [1] = test system: T3, O=C(O)[C@H](O)[C@@H](O)[C@@H](O)[C@H](O)CO; assay: cells, lysate or membranes; assay type: cell-based, Escherichia coli; conditions: 150 mM KCl, pH 6, 30 °C, 30 s, H+ cotransport, labelled compound
# T3 construct: full length, C-terminal modified decahistidine tag, pBAD; expressed in dgoT-deleted E. coli (Keio dgoT727(del)::kan)
# Sialin [2] = biological target: T1, Sialin; assay: inhibition of 3H-glucuronic acid uptake by unlabelled compound in transfected HEK293T cells; assay type: cell-based; conditions: room temperature, 4 min, Ringer's solution; self-competition with labelled compound
# Sialin [3] = biological target: T2, Sialin; assay: as above; assay type: cell-based; conditions: room temperature, 4 min, Ringer's solution; self-competition with labelled compound
# [4] = substrate: O=C(O)[C@H](O)[C@@H](O)[C@@H](O)[C@H](O)CO; assay: cells, lysate or membranes; assay type: cell-based, Escherichia coli; conditions: 150 mM KCl, pH 6, 30 °C, 20 s, H+ cotransport, labelled compound
molecule,measurement,setting,value
DgoT (Escherichia coli; Y44F),Km,[1],22.8 ± 7.7 µM
O=C(O)[C@H]1OC(O)[C@H](O)[C@@H](O)[C@@H]1O (stereo partly shown) [glucuronic acid],IC50,Sialin [2],~2000 µM
same,IC50,Sialin [3],~3000 µM
"DgoT (Escherichia coli) (protein, full length, C-terminal modified decahistidine tag, pBAD; expressed in dgoT-deleted E. coli (Keio dgoT727(del)::kan)) MVSGFAMPKIWRKLAMDIPVNAAKPGRRRYLTLVMIFITVVICYVDRANLAVASAHIQEEFGITKAEMGYVFSAFAWLYTLCQIPGGWFLDRVGSRVTYFIAIFGWSVATLFQGFATGLMSLIGLRAITGIFEAPAFPTNNRMVTSWFPEHERASAVGFYTSGQFVGLAFLTPLLIWIQEMLSWHWVFIVTGGIGIIWSLIWFKVYQPPRLTKGISKAELDYIRDGGGLVDGDAPVKKEARQPLTAKDWKLVFHRKLIGVYLGQFAVASTLWFFLTWFPNYLTQEKGITALKAGFMTTVPFLAAFVGVLLSGWVADLLVRKGFSLGFARKTPIICGLLISTCIMGANYTNDPMMIMCLMALAFFGNGFASITWSLVSSLAPMRLIGLTGGVFNFAGGLGGITVPLVVGYLAQGYGFAPALVYISAVALIGALSYILLVGDVKRVG",Km,[4],1.97 ± 1.1 µM
